Measured values from patent US11155602B2, “Polypeptides targeting HIV fusion” (priority 2015, dated 2021).
Positions count from the first letter of the chain named.

B1: 141 (protein)
chain: MGVSDVPRDLEVVAATPTSLLISWQYKVHPYRYYRITYGETGGNSPVQEFTVPSVLSTATISGLKPGVDYTITVYAVTYGIQSPPISINYRTEIDKPSQHHHHHH
modifications: Adnectin
B2: 147 (protein)
chain: B1 chain with Q25E, I81V, Q82D, P84D
modifications: Adnectin
B3: 146 (protein)
chain: B1 chain with Q25E, Q82D
modifications: Adnectin
B4: 152 (protein)
chain: B1 chain with Q25E, K27N, H29N, I81V, P84D
modifications: Adnectin
B5: 155 (protein)
chain: B1 chain with Y79H, I81V, Q82H, P84A
modifications: Adnectin
B6: 142 (protein)
chain: B1 chain with Q25R, K27R, Y79D, I81V, P84S
modifications: Adnectin
B7: 145 (protein)
chain: B1 chain with Q25E, I81V, Q82N, P84L
modifications: Adnectin
B8: 151 (protein)
chain: B1 chain with Q25E, Q82D, P84S
modifications: Adnectin
B9: 143 (protein)
chain: B1 chain with Q25E, K27N, H29N, Q82E, P84S
modifications: Adnectin
B10: 144 (protein)
chain: B1 chain with I81V, Q82E, P84S
modifications: Adnectin
B11: 148 (protein)
chain: B1 chain with Q25E, K27N, H29N, Q82D
modifications: Adnectin
B12: 154 (protein)
chain: B1 chain with Q25E, K27N, H29N, I81V, Q82N, P84L
modifications: Adnectin
B13: 150 (protein)
chain: B1 chain with Q25E, K27N, H29N, I81V, Q82E, P84S
modifications: Adnectin
B14: 156 (protein)
chain: B1 chain with Q25E, H29N, Y31W, Q82E, P84S
modifications: Adnectin
B15: 149 (protein)
chain: MGHHHHHHGGSVSDVPRDLEVVAATPTSLLISWEYKVHPYRYYRITYGETGGNSPVQEFTVPSVLSTATISGLKPGVDYTITVYAVTYGKDSAPISINYRTEID
modifications: Adnectin
B16: 153 (protein)
chain: B15 chain with T69Q, K90D
modifications: Adnectin
B17: 117 (protein)
chain: B15 chain with K90D
modifications: Adnectin
B18: 116 (protein)
chain: MASTSGVSDVPRDLEVVAATPTSLLISWDAPAVTVEQYYIAYYVEGEPSSYQYFRVPGSKSTATISGLKPGVLYHIYVNAVTGSGLRPEFSLPIRIKYRTEGSGSHHHHHH
modifications: Adnectin

Test system: NL-Rluc virus
Assay: Combinectin potency assay: antiviral EC50, NL-Rluc virus in MT-2 cells, luciferase readout
Assay type: cell-based, HIV-1
Conditions: Anti-N17 Adnectin, Table 3
Protocol: MT-2 cells, HEK 293T cells and the proviral DNA clone of […] were obtained from the NIH AIDS Research and Reference Reagent Program. MT-2 cells were propagated in RPMI 1640 medium supplemented with 10% heat-inactivated fetal bovine serum (FBS), 10 mM HEPES buffer pH 7.55, and 2 mM L-glutamine. HEK 293T cells were propagated in DMEM media supplemented with 10% heat-inactivated FBS, 10 mM HEPES buffer pH 7.55 and 2 mM L-glutamine. Recombinant NL-Rluc virus, in which a section of the nef gene from the proviral clone of NL4-3 was replaced with the Renilla luciferase gene, was constructed at Bristol-Myers Squibb. The replication-competent virus was harvested 3 days after transfection of HEK 293T cells with the modified pNL-Rluc proviral clone. Transfections were performed using Lipofectamine Plus (Invitrogen, Carlsbad, Calif.), according to manufacturer's instruction. Virus was titered in MT-2 cells using luciferase enzyme activity as a biomarker. The NL-Rluc virus used to infect MT-2 cells a multiplicity of 0.01 for 1 hour before adding to the peptides in 96-well plates. Peptides were serially diluted three-fold and 11 concentrations were plated in triplicate. After 4-5 days of incubation, cells were processed and quantitated for virus growth by the amount of expressed luciferase. Luciferase was quantitated using the Dual Luciferase kit from Promega (Madison, Wis.), with modifications to the manufacturer's protocol. The diluted Passive Lysis solution was pre-mixed with the re-suspended Luciferase Assay Reagent and then re-suspended in STOP & GLO® Substrate (2:1:1 ratio). A total of […] of the mixture was added to each aspirated well on assay plates and luciferase activity was measured immediately on a Wallac TriLux (Perkin-Elmer, Waltham, Mass.). The 50% effective concentration (EC50) was calculated by comparing the amount of luciferase produced in the presence of inhibitory peptide compared to wells where no peptide was added.

Molecule	EC50 [nM]
B1	3
B2	28
B3	11
B4	20
B5	9
B6	55
B7	11
B8	11
B9	20
B10	20
B11	14
B12	8
B13	18
B14	43
B15	3
B16	8
B17	42
B18	50
